In article PMC314469, “Protein Interaction Networks by Proteome Peptide Scanning” (PLoS Biology, 2004):

T1: amphyphisin SH3 (AMPH_HUMAN), P49418
T1 chain: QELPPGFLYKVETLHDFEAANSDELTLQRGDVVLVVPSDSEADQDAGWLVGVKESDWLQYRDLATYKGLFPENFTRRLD


How the values were obtained:
[1] = target: T1, amphyphisin SH3 (AMPH_HUMAN), P49418; assay: SPOT array
[2] = target: endophilin SH3 (SH3G2_HUMAN), Q99962; assay: SPOT array

Binder	normalised SPOT signal, Boehringer light units (BLU); mean over the file's lines of this peptide [1]	normalised SPOT signal, Boehringer light units (BLU); mean over the file's lines of this peptide [2]
TSPAPHRPPKRVKA [Q9NRC7 337-350]	-0	4.2
TSPTFRRPKTLRLR [P29316 42-55]	56.7	54.7
TSVPLARPLRTSEE [O94942 425-438]	161	186
TSWMPRRPSSPLKE [Q9H2L5 83-96]	36.5	684
TTKVIRRPRRGRMG [O75334 571-584]	118	150
SGGRPARPDRGPEP [Q92914 53-66]	1740	2500
TTPPPGRPPAPSSE [Q96KN1 287-301]	24.7	4930
TTRRPPRPPGSSRK [Q9C0H3 154-168]	3160	11100
TTTPPTKPPSFNLH [Q99966 72-86]	54	647
TTVLIKRPDLKYQL [Q99767 658-671]	30.1	74.4
TTVLIRRPDLRYQL [Q02410 746-759]	29.4	16.2
TTVRPAKPPVVDRS [O95630 222-236]	34.9	806
TVNLFKRPLPKSKP [Q9UNP7 5-18]	25.3	60.8
TWQGLRRPPSVLGH [Q9C094 1911-1924]	64	346
TYQHLRRPRGLSSL [O60721 37-50]	31.3	196
TYSLLRRPFRQVLA [Q96P69 293-306]	691	715
SGKAFRRPSDLFRH [Q9NPV1 31-44]	28.3	26.9
TYTAPPRPPKKREY [Q9P1Z0 111-124]	189	166
VAEPPPRPPPPPPP [Q9NZM4 1290-1304]	75.4	609
VAPRPARPPGDLGP [O00144 174-188]	151	630
VARSPKRPAWGSRR [Q9P1W0 38-51]	47.2	1040

Binder	normalised SPOT signal, Boehringer light units (BLU); mean over the file's lines of this peptide [1]	normalised SPOT signal, Boehringer light units (BLU); mean over the file's lines of this peptide [2]
VASGPSRPGREEHI [Q04671 237-250]	2520	430
VATDLGRPARSATG [Q96JQ0 2039-2052]	18.2	89.9
VAWHPKRPLLAFAS [Q96J01 313-326]	32.8	267
VSARPEKPPGQVTR [P35475 539-553]	42.3	98.9
VSLALVRPSKMGLS [O15403 466-479]	53.1	9.5
SGPPPLRPPLPAAA [P22004 21-35]	58.3	4710
VSPGPIRPIKQISD [Q14184 22-35]	126	344
VSPGPIRPIRQISD [Q14183 21-34]	1280	254
VSRDITRPPKTVAT [Q14425 672-685]	119	189
VSRLPKRPEPSPPL [Q15515 17-30]	30	3650
VDNTIKRPNPAPGT [Q9UQ13 68-81]	7.4	51.8
VEELLRRPMDSLDS [P42229 764-777]	30.5	46.2
VEGILKRPPDEQRL [Q15370 31-44]	32.4	20.6
VEGSPFRPPSHSFS [O95359 85-99]	51.3	79.6
VEHVPGRPVRNPQS [P25391 53-66]	638	49.9
VEPPPRRPMSQKSE [Q96MR0 151-164]	247	258
SGRHFRRPDPSREP [Q9H9Q6 68-81]	23.3	15
VESILKRPSSAITR [Q9NPG6 312-325]	27.1	31.6
VETSLRRPQDKDAK [P36776 780-793]	26.8	43.5
VFLSFRRPFWREEH [Q96RQ9 355-368]	12.9	13.7
VFQAPRRPGIGTVG [Q9UL18 20-33]	155	728
